Reference: patent publication US20240066061A1
Each block holds one molecule with its values, some of them ahead of it.

Molecular target: chemokine receptor CXCR3 (human) (UniProt P49682)
Assay: cell-based or functional assay

Sequence of UniProt P49682 (P49682 whole entry): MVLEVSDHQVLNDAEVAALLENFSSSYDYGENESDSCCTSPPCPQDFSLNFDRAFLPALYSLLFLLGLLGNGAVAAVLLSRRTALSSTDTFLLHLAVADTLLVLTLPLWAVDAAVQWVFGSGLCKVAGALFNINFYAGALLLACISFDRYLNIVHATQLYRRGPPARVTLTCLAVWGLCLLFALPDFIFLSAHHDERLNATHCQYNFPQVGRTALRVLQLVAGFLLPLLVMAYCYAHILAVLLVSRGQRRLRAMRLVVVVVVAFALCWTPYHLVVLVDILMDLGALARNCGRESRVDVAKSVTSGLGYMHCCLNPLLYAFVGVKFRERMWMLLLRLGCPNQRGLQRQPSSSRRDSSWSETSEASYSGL

- chemokine concentration at maximum cell migration of CD8+ TSCM: 100 ng/mL
- chemotactic index, in-vitro transwell migration of human T cells: 2
Molecule: CXCL10 (from UniProt P02778 22-98) (ligand)

- chemokine concentration at maximum cell migration of CD8+ TSCM: 100 ng/mL
- chemotactic index, in-vitro transwell migration of human T cells: 2
- fold enrichment of CXCR3+ cells after 21 days stimulation with CMV epitopes and CXCL11: 10000 fold
B1: CXCL11 (ligand, UniProt O14625 22-94, looked up)
chain: FPMFKRGRCLCIGPGVKAVKVADIEKASIMYPSNNCDKIEVIITLKENKGQRCLNPKSKQARLIIKKVERKNF

- chemokine concentration at maximum cell migration of CD8+ TSCM: 100 ng/mL
- chemotactic index, in-vitro transwell migration of human T cells: 2
B2: CXCL9 (ligand, UniProt Q07325 23-125, looked up)
chain: TPVVRKGRCSCISTNQGTIHLQSLKDLKQFAPSPSCEKIEIIATLKNGVQTCLNPDSADVKELIKKWEKQVSQKKKQKNGKKHQKKKVLKVRKSQRSRQKKTT
